Results published in patent US20120294796A1 (MacroGenics, published 2012).

How the values were obtained:
[1] = biological target: T1, human B7-H3 on the surface of human cell lines (human, UniProt Q5ZPR3 29-534); test: FACS, fluorescein-labeled mAb, A498 cells
T1 construct: whole, on cells; also called B7-H3 present on the surface of cancer cells
T1 sequence (looked up): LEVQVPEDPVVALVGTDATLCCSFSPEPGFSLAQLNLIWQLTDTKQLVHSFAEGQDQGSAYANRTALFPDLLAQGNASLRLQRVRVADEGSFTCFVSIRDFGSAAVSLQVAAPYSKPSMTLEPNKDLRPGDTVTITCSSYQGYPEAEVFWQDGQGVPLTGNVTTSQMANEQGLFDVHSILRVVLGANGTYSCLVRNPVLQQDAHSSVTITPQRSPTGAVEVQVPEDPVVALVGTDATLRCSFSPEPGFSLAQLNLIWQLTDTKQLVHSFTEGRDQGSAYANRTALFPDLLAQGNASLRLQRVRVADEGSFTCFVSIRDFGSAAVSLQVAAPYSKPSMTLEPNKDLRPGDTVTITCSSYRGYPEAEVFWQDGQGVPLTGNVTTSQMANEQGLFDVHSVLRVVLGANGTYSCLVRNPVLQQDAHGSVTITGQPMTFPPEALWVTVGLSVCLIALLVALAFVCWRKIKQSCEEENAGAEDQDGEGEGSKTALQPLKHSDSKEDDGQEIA

[2] = biological target: T1, human B7-H3 on the surface of human …; test: FACS, fluorescein-labeled mAb, A549 cells
[3] = biological target: T1, human B7-H3 on the surface of human …; test: FACS, fluorescein-labeled mAb, LNCaP cells

B1: BRCA69D (antibody, IgG1, V domains shown)
VH: QVQLQQSGAELARPGASVKLSCKASGYTFTSYWMQWVKQRPGQGLEWIGTIYPGDGDTRYTQKFKGKATLTADKSSSTAYMQLSSLASEDSAVYYCARRGIPRLWYFDVWGAGTTVTVSS
VL: DIQMTQTTSSLSASLGDRVTISCRASQDISNYLNWYQQKPDGTVKLLIYYTSRLHSGVPSRFSGSGSGTDYSLTIDNLEQEDIATYFCQQGNTLPPTFGGGTKLEIK
notes: also called BRCA69A (probable misprint)
What does the source list for B1?
FACS MFI [1]: 84.1 MFI; FACS MFI [2]: 60.5 MFI; FACS MFI [3]: 92.4 MFI

B2: PRCA157 (antibody, IgG1, V domains shown)
VH: EVQQVESGGDLVKPGGSLKLSCAASGFTFSSYGMSWVRQTPDKRLEWVATINSGGSNTYYPDSLKGRFTISRDNAKNTLYLQMRSLKSEDTAMYYCARHDGGAMDYWGQGTSVTVSS
VL: DIQMTQSPASLSVSVGETVTITCRASESIYSYLAWYQQKQGKSPQLLVYNTKTLPEGVPSRFSGSGSGTQFSLKINSLQPEDFGRYYCQHHYGTPPWTFGGGTNLEIK
With B2 as the binder, how does the “FACS MFI” value [1] read?
The value was 58.8 MFI.

And the “FACS MFI” value [2]?
The value was 44.3 MFI.

And the “FACS MFI” value [3]?
The value was 16.4 MFI.

B3: BRCA84D (antibody, IgG1, V domains shown)
VH: DVQLVESGGGLVQPGGSRKLSCAASGFTFSSFGMHWVRQAPEKGLEWVAYISSDSSAIYYADTVKGRFTISRDNPKNTLFLQMTSLRSEDTAMYYCGRGRENIYYGSRLDYWGQGTTLTVSS
VL: DIAMTQSQKFMSTSVGDRVSVTCKASQNVDTNVAWYQQKPGQSPKALIYSASYRYSGVPDRFTGSGSGTDFTLTINNVQSEDLAEYFCQQYNNYPFTFGSGTKLEIK
With B3 as the binder, how does the “FACS MFI” value [1] read?
Its value is 30.6 MFI.

And the “FACS MFI” value [2]?
Its value is 25 MFI.

And the “FACS MFI” value [3]?
The value was 16.4 MFI.
